Data: paper doi:10.1101/2020.08.10.245522

How the values were obtained:
[1] = target: A14C/E45C disulfide crosslinked CA tubes (HIV-1); experiment: co-sedimentation
[2] = target: CA hexamer-2 (HIV-1 | not stated); experiment: SEC-MALS
[3] = target: CA hexamer-2 (HIV-1 | not stated); experiment: ITC

NUP153^1401-1475, sequence (P49790 1401-1475): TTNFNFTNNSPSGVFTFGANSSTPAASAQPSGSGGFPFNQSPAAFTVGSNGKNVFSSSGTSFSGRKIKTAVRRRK

| Substance | percent bound to CA tubes [1] [%] | also measured |
| --- | --- | --- |
| NUP153^1411-1465 (from UniProt P49790 1411-1464) (domain or fragment) | 25 | – |
| NUP153^1401-1475 (from UniProt P49790 1401-1475) (domain or fragment) | – | stoichiometry N (NUP153^1401-1475 per hexamer-2) [2]: 1 |
| NUP153^1465-1475 (from UniProt P49790 1465-1475) (domain or fragment) | 50 | – |
| NUP153^1411-1475/1425-1464Δ peptide (25 aa) (from UniProt P49790 1411-1475) | – | Kd [3]: 800 nM |
